Results as given in PMC9019814.

How the values were obtained:
[1] = molecular target: βB2-crystallin (calf (endogenous in calf lenses)) (UniProt P02522)
alcohol dehydrogenase = alcohol dehydrogenase (UniProt P00330)
citrate synthase = citrate synthase (UniProt P00889)
citrate synthase, sequence (P00889 28-464): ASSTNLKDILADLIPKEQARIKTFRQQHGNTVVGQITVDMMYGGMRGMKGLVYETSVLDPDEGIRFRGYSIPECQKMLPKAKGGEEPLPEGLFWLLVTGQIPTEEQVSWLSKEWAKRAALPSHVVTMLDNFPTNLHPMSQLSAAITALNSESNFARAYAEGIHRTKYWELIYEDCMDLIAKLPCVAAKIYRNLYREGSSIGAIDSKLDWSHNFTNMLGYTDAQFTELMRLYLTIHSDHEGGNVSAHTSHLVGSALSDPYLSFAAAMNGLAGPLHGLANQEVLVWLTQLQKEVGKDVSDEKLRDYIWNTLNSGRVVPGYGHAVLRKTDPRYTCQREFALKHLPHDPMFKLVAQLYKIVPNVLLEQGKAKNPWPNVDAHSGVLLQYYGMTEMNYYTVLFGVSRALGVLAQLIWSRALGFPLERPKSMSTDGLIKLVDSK

human wild-type αA-crystallin, sequence (P02489 whole entry): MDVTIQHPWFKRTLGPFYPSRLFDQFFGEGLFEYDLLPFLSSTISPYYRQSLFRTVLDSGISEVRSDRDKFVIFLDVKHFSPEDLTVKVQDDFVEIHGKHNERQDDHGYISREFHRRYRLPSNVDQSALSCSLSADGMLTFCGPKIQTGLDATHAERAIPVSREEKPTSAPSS
alcohol dehydrogenase, sequence (P00330 whole entry): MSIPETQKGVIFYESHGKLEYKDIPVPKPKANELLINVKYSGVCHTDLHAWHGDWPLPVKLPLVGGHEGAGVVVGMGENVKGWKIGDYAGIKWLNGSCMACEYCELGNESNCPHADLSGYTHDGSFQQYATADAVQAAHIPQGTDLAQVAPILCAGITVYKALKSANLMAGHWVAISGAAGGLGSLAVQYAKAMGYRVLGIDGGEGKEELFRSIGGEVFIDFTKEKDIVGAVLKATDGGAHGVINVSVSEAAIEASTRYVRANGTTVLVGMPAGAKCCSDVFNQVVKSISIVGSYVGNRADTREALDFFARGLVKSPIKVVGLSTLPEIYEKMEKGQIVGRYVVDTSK
βB2-crystallin (calf (endogenous in calf lenses)), sequence (P02522 whole entry): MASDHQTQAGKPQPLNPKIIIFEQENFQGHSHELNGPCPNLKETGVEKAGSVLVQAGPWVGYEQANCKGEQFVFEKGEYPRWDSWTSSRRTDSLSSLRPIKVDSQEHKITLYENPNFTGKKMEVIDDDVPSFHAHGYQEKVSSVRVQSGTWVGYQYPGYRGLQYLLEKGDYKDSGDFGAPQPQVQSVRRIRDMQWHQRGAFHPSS

amount of chaperone protein that suppresses the aggregation of βB2-crystallin (250 µg in 1 ml) at 37°C by 50%, scattering at 360 nm at 60 min [1]: 30 µg
EC50 of chaperone protein for suppression of EDTA-induced aggregation of ADH (250 µg in 1 ml) at 37°C, scattering at 360 nm at 60 min (alcohol dehydrogenase): 45 µg
amount of chaperone protein for fifty percent protection from thermal aggregation of CS (75 µg in 1 ml) at 43°C, scattering at 360 nm at 60 min (citrate synthase): 22 µg
Substance: human wild-type αA-crystallin (from UniProt P02489 1-173) (natural protein)
